# Data taken from patent publication US20200377590A1 (Hoffmann-La Roche, published 2020).
# Numbering of substitutions follows the chain as printed.
# T1: CD81 (UniProt P60033 1-236, limits assumed)
# T1 construct: whole, on cells; also called CD81 receptor
# T1 sequence (looked up): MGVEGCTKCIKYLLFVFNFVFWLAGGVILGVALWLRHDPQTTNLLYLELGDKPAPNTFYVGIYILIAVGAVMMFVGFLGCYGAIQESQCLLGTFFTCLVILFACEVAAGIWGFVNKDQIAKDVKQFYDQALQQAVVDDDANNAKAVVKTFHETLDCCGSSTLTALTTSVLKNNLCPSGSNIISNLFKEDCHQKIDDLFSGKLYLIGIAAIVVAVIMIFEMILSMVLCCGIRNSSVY
# B1: CD81K13 HC 04-hVH_1_69 / LC CD81K13 (antibody, V domains shown)
# VH: EVQLVESGGGLVQPGRSLRLSCTASGFNFKDSYLHWVRQAPGQGLEWMGRIDTGNGNVKFDPKFQGRVTITADESTSTAYMELSSLRSEDTAVYYCVPYGYGFHSWGQGTLVTVSS
# VL: DIQMTQSPASLSVSVGETVTITCRASENIYRTLAWYLQKQGKSPQLLVYGATTLADGVPSRFSGSGSGTQYYLKINSLQSEDFGTYHCQHFWGTPWTFGGGTKVEIK
# notes: human constant region
# B2: CD81K13 HC 04-hVH_1_69 / LC 1c-hVK_3_15 (antibody, V domains shown)
# VH: B1 VH
# VL: EIVMTQSPATLSVSPGERATLSCRASENIYRTLAWYQQKPGQAPRLLIYGATTLADGIPARFSGSGSGTEFTLTISSLQSEDFGVYYCQHFWGTPWTFGQGTKVEIK
# notes: human constant region
# B3: CD81K13 HC 04-hVH_1_69 / LC 1b-hVK_3_15 (antibody, V domains shown)
# VH: B1 VH
# VL: B2 VL with G84A
# notes: human constant region
# B4: CD81K13 HC 04-hVH_1_69 / LC 01-hVK_3_15 (antibody, V domains shown)
# VH: B1 VH
# VL: B2 VL with L54R, D56T
# notes: human constant region
# B5: CD81K13 HC 06-hVH_1_3 / LC 07-hVK_1_27 (antibody, V domains shown)
# VH: QVQLVQSGAEVKKPGASVKVSCKASGYTFKDSYLHWVRQAPGQRLEWMGRIDTGNGNVKFDPKFQGRVTITTDTSASTAYMELSSLRSEDTAVYYCAPYGYGFHSWGQGTLVTVSS
# VL: DIQMTQSPSSLSASVGDRVTITCRASENIYRTLAWYQQKPGKVPKLLIYAATTLASGVPSRFSGSGSGTDFTLTISSLQPEDVGTYYCQKFWGTPWTFGQGTKVEIK
# notes: human constant region
# B6: CD81K13 HC 04-hVH_1_69 / LC 5b-hVK_1_39-GA (antibody, V domains shown)
# VH: B1 VH
# VL: B5 VL with V43A, A50G, S56D, V83F, G84A, K90H
# notes: human constant region
# B7: CD81K13 HC 04-hVH_1_69 / LC 06-hVK_1_39 (antibody, V domains shown)
# VH: B1 VH
# VL: B5 VL with V43A, V83F, K90H
# notes: human constant region
# B8: CD81K13 HC 04-hVH_1_69 / LC 05-hVK_1_39 (antibody, V domains shown)
# VH: B1 VH
# VL: B5 VL with V43A, V83F, G84A, K90H
# notes: human constant region
# B9: CD81K13 HC 04-hVH_1_69 / LC 04-hVK_1_9 (antibody, V domains shown)
# VH: B1 VH
# VL: B5 VL with M4L, S10F, V43A, D70E, V83F, K90H
# notes: human constant region
# B10: CD81K13 HC 04-hVH_1_69 / LC 03-hVK_1_9 (antibody, V domains shown)
# VH: B1 VH
# VL: B5 VL with M4L, S10F, V43A, D70E, V83F, G84A, K90H
# notes: human constant region
# B11: CD81K13 HC 04-hVH_1_69 / LC 5b-hVK_1_39 (antibody, V domains shown)
# VH: B1 VH
# VL: B5 VL with V43A, A50G, S56D, V83F, G84A, K90H
# notes: human constant region
# B12: CD81K13 HC 07-hVH_1_3 / LC 04-hVK_1_9 (antibody, V domains shown)
# VH: B5 VH with R44G
# VL: B5 VL with M4L, S10F, V43A, D70E, V83F, K90H
# notes: human constant region
# B13: CD81K13 HC 07-hVH_1_3 / LC 03-hVK_1_9 (antibody, V domains shown)
# VH: B5 VH with R44G
# VL: B5 VL with M4L, S10F, V43A, D70E, V83F, G84A, K90H
# notes: human constant region
# B14: CD81K13 HC 07-hVH_1_3 / LC 5b-hVK_1_39-GA (antibody, V domains shown)
# VH: B5 VH with R44G
# VL: B5 VL with V43A, A50G, S56D, V83F, G84A, K90H
# notes: human constant region
# B15: CD81K13 HC 07-hVH_1_3 / LC 05-hVK_1_39 (antibody, V domains shown)
# VH: B5 VH with R44G
# VL: B5 VL with V43A, V83F, G84A, K90H
# notes: human constant region
# B16: CD81K13 HC 07-hVH_1_3 / LC 07-hVK_1_27 (antibody, V domains shown)
# VH: B5 VH with R44G
# VL: B5 VL
# notes: human constant region
# B17: CD81K13 HC 07-hVH_1_3 / LC 5b-hVK_1_39 (antibody, V domains shown)
# VH: B5 VH with R44G
# VL: B5 VL with V43A, A50G, S56D, V83F, G84A, K90H
# notes: human constant region
# B18: CD81K13 HC 07-hVH_1_3 / LC 06-hVK_1_39 (antibody, V domains shown)
# VH: B5 VH with R44G
# VL: B5 VL with V43A, V83F, K90H
# notes: human constant region
# B19: CD81K04 HC JA_GG-14-hVH_1_69-GA / LC GG-04-hVK_4_1 (antibody, V domains shown)
# VH: QVQLVQSGAEVKKPGSSVKVSCKASGYTFSSSWMNWVRQAPGQGLEWMGRIYSGDGDAIYNGKFKGKATITADESTSTAYMELSSLRSEDTAVYYCAREGKTGDLLLRSWGQGTLVTVSS
# VL: DIVMTQSPDSLAVSLGERATINCKSSKSVSTSIYSYLAWYQQKPGQPPKLLIYYASTRESGVPDRFSGSGSGTDFTLTISSLQAEDVAVYYCQHSREFPYTFGQGTKLEIK
# notes: human constant region
# B20: CD81K04 HC JA_GG-14-hVH_1_69-GA / LC JA_GG-07-hVK_7_3 (antibody, V domains shown)
# VH: B19 VH
# VL: DIVLTQSPASLAVSPGQRATITCRASKSVSTSIYSYMHWYQQKPGQPPKLLIKYASNKDTGVPARFSGSGSGTDFTLTINPVEANDAANYYCLHSREFPYTFGQGTKLEIK
# notes: human constant region
# Molecular target: T1, CD81
# Experiment: cell ELISA
# Procedure: For the binding cell ELISA assay, HuH7-Rluc-H3 (positive cell line expressing CD81) and HuH7-Rluc-L1 (negative control cell line) were propagated in F-12 DMEM medium with 10% FCS at 37° C. and 5% CO₂. On day 1, the cells were trypsinized at approximately 90% confluence and resuspended at 4×10⁵ cells/mL. […] On day 2, the antibody samples to be tested were prepared in a separate polypropylene round bottom plate with a twofold desired concentration with a final volume of 120 μl. All of the assay samples were diluted in cell culture medium. […] After fixation, each well was washed 3 times with 200 μL PBS/0.05% Tween. The secondary incubation step for detection of bound anti-CD81 antibodies was performed for 2 h at room temperature on a reciprocal shaker. […] Each well was washed three times with 200 μL PBS/0.05% Tween to remove unbound antibodies. […] The absorbance was read using the ELISA Tecan reader at 450 nm with 620 nm reference wavelength.
row,Binder,ELISA data
1,B1,0.776
2,B2,0.395
3,B3,0.277
4,B4,0.513
5,B5,0.078
6,B6,0.403
7,B7,0.386
8,B8,0.776
9,B9,0.459
10,B10,0.52
11,B11,0.428
12,B12,0.141
13,B13,0.331
14,B14,0.363
15,B15,0.4
16,B16,0.073
17,B17,0.448
18,B18,0.269

# Molecular target: T1, CD81
# Experiment: cell ELISA
# Remark: another data set of the same source
row,Binder,ELISA data
1,B19,0.12
2,B20,0.125

# Molecular target: T1, CD81
# Experiment: cell ELISA
# Remark: another data set of the same source
row,Binder,ELISA data
1,B19,0.107
2,B20,0.107
